Measured values reported in US20250296971A1, “GASTRIC INHIBITORY PEPTIDE RECEPTOR LIGANDS” (priority 2021, published 2025).
*1 amine or outer side, *2 acyl side, *3 side chain or, on linkers, in order; H or OH if unused. Primed or numbered codes have the meaning given here. Where no end group is shown, it is not given here. [ ]: non-standard residue; d: D form. The star is where a group is joined. Ttds = 1,13-diamino-4,7,10-trioxatridecan-succinamic acid, NCCCOCCOCCOCCCNC(=O)CCC(=O)*; DOTA = O=C(O)CN1CCN(CC(=O)O)CCN(CC(=O)*)CCN(CC(=O)O)CC1; Trp(5-Cl) = N[C@@H](Cc1c[nH]c2ccc(Cl)cc12)C(=O)O; AETO = 2-aminoethane-1-thiol oxidized; mXylylene = c1cc(C[*:1])cc(C[*:2])c1; Hyp = O=C(O)[C@@H]1C[C@@H](O)CN1; Cysteamide = C(CS[*:3])N[*:1]; 2Lut(3) = 2,6-lutidylidene; 3Lut = 3,5-lutidylidene; Dap = NC[C@H](N)C(=O)O; Aib = CC(C)(N)C(=O)O

Molecular target: human Gastric Inhibitory Peptide Receptor (human) (UniProt P48546)
Experiment: FACS competition with GIP-057 on CHO-K1-hGIPR cells; pIC50 category A: >8.0

| pIC50 [pic50] | Binder |
| --- | --- |
| > 8 | {DOTA-Ttds}-DW[Trp(5-Cl)]PE[dL][Dap][Aib]LI[Cysteamide] (linker (positions not given here) via mXylylene; not fully specified (bridges); printed as DOTA-Ttds-Asp-Trp-5Clw-Pro-Glu-leu-[Dap(3MeBn)-Aib-Leu-Ile-AET]) [DOTA-Ttds-Asp-Trp-5Clw-Pro-Glu-leu-[Dap(3MeBn)-Aib-Leu-Ile-AET]] |
| > 8 | {DOTA-Ttds}-DW[Trp(5-Cl)]PE[dL][Dap][Aib]LI[AETO] (linker (positions not given here) via mXylylene; not fully specified (bridges)) [DOTA-Ttds-Asp-Trp-5Clw-Pro-Glu-leu-[Dap(3MeBn)-Aib-Leu-Ile-AETO]] |
| > 8 | {DOTA-Ttds}-DW[Trp(5-Cl)][Hyp]E[dL]C[Aib]LI[Cysteamide] (linker (positions not given here) via mXylylene; not fully specified (bridges); printed as DOTA-Ttds-Asp-Trp-5Clw-Hyp-Glu-leu-[Cys(3MeBn)-Aib-Leu-Ile-AET]) [DOTA-Ttds-Asp-Trp-5Clw-Hyp-Glu-leu-[Cys(3MeBn)-Aib-Leu-Ile-AET]] |
| > 8 | {DOTA-Ttds}-DW[Trp(5-Cl)]PE[dL]C[Aib]LI[Cysteamide] (linker (positions not given here) via 2Lut(3); not fully specified (bridges); printed as DOTA-Ttds-Asp-Trp-5Clw-Pro-Glu-leu-[Cys(2Lut)-Aib-Leu-Ile-AET]) [DOTA-Ttds-Asp-Trp-5Clw-Pro-Glu-leu-[Cys(2Lut)-Aib-Leu-Ile-AET]] |
| > 8 | {DOTA-Ttds}-DW[Trp(5-Cl)]PE[dL]C[Aib]LI[Cysteamide] (linker (positions not given here) via 3Lut; not fully specified (bridges); printed as DOTA-Ttds-Asp-Trp-5Clw-Pro-Glu-leu-[Cys(3Lut)-Aib-Leu-Ile-AET]) [DOTA-Ttds-Asp-Trp-5Clw-Pro-Glu-leu-[Cys(3Lut)-Aib-Leu-Ile-AET]] |
| > 8 | DWXPEXCXLI (N-term DOTA-Ttds; 5Clw; leu (D-Leu); cycle [Cys(3MeBn)..en]; Aib) [DOTA-Ttds-Asp-Trp-5Clw-Pro-Glu-leu-[Cys(3MeBn)-Aib-Leu-Ile-en]] |
